Tests used:
[1] = target: T1, soluble form of GPC3 core protein (human, UniProt P51654 25-563); assay: ELISA on plate coated with soluble GPC3 core protein; antibody from COS7 culture supernatant [middle left panel]
T1 construct: not shown: His tag added to the C-terminus

[2] = target: T1, soluble form of GPC3 core protein; assay: ELISA on plate coated with soluble GPC3 core protein; antibody from COS7 culture supernatant [lower left panel]
Procedure: (§1) It was introduced into a COS7 cell using Fugene 6 (Roche) together with HEFgγ1, in which a humanized GC33H chain ver.k had been cloned. The antibody transiently expressed in the cell was recovered from the culture supernatant. The concentration of antibody was determined by a sandwich ELISA using the anti-human IgG antibody. The binding activity of the modified antibody was evaluated by an ELISA using an immunoplate coated with the soluble form of GPC3 core protein.
(§2) These antibodies were transiently expressed in COS7 cells, and the binding activity was evaluated using the culture supernatant.

[3] = target: T1, soluble form of GPC3 core protein; assay: ELISA on plate coated with soluble GPC3 core protein; antibody from COS7 culture supernatant [upper right panel]
Procedure: as §1, §2

T1 sequence (P51654 25-563 S495A/S509A, form in doubt): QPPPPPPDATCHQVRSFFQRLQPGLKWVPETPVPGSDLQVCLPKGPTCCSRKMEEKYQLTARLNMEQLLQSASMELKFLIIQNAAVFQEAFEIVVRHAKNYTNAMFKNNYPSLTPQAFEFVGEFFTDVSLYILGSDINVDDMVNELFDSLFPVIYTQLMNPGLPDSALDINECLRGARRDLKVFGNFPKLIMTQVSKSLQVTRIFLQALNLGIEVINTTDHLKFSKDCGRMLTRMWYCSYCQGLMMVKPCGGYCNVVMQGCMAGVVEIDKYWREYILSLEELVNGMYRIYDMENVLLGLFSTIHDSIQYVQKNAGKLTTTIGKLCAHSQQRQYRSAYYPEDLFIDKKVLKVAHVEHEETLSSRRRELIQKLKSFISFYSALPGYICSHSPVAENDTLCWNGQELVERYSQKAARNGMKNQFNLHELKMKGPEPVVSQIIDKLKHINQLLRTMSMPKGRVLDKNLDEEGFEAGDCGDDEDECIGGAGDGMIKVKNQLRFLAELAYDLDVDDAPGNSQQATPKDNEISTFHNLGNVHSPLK

Binder	EC50 (read off the curve) [1] [mg/L]	EC50 (read off the curve) [2] [mg/L]	other results
G34P (antibody, V domains shown, also called modified humanized GC33 (H chain ver.k, L chain G34P)) VH: QVQLVQSGAEVKKPGASVKVSCKASGYTFTDYEMHWVRQAPGQGLEWMGALDPKTGDTAYSQKFKGRVTLTADKSTSTAYMELSSLTSEDTAVYYCTRFYSYTYWGQGTLVTVSS VL: DVVMTQSPLSLPVTPGEPASISCRSSQSLVHSNPNTYLHWYLQKPGQSPQLLIYKVSNRFSGVPDRFSGSGSGTDFTLKISRVEAEDVGVYYCSQNTHVPPTFGQGTKLEIK	~0.03		
G34V (antibody, V domains shown, also called modified humanized GC33 (H chain ver.k, L chain G34V)) VH: QVQLVQSGAEVKKPGASVKVSCKASGYTFTDYEMHWVRQAPGQGLEWMGALDPKTGDTAYSQKFKGRVTLTADKSTSTAYMELSSLTSEDTAVYYCTRFYSYTYWGQGTLVTVSS VL: DVVMTQSPLSLPVTPGEPASISCRSSQSLVHSNVNTYLHWYLQKPGQSPQLLIYKVSNRFSGVPDRFSGSGSGTDFTLKISRVEAEDVGVYYCSQNTHVPPTFGQGTKLEIK		~0.02	
modified humanized GC33 (H chain ver.k, L chain G34H) (antibody, human IgG1, V domains shown, COS7 supernatant; human IgG1/kappa) VH: QVQLVQSGAEVKKPGASVKVSCKASGYTFTDYEMHWVRQAPGQGLEWMGALDPKTGDTAYSQKFKGRVTLTADKSTSTAYMELSSLTSEDTAVYYCTRFYSYTYWGQGTLVTVSS VL: DVVMTQSPLSLPVTPGEPASISCRSSQSLVHSNHNTYLHWYLQKPGQSPQLLIYKVSNRFSGVPDRFSGSGSGTDFTLKISRVEAEDVGVYYCSQNTHVPPTFGQGTKLEIK			EC50 (read off the curve) [3]: ~0.02 mg/L
modified humanized GC33 (H chain ver.k, L chain G34N) (antibody, human IgG1, V domains shown, COS7 supernatant; human IgG1/kappa) VH: QVQLVQSGAEVKKPGASVKVSCKASGYTFTDYEMHWVRQAPGQGLEWMGALDPKTGDTAYSQKFKGRVTLTADKSTSTAYMELSSLTSEDTAVYYCTRFYSYTYWGQGTLVTVSS VL: DVVMTQSPLSLPVTPGEPASISCRSSQSLVHSNNNTYLHWYLQKPGQSPQLLIYKVSNRFSGVPDRFSGSGSGTDFTLKISRVEAEDVGVYYCSQNTHVPPTFGQGTKLEIK	~0.02		
modified humanized GC33 (H chain ver.k, L chain G34Q) (antibody, human IgG1, V domains shown, COS7 supernatant; human IgG1/kappa) VH: QVQLVQSGAEVKKPGASVKVSCKASGYTFTDYEMHWVRQAPGQGLEWMGALDPKTGDTAYSQKFKGRVTLTADKSTSTAYMELSSLTSEDTAVYYCTRFYSYTYWGQGTLVTVSS VL: DVVMTQSPLSLPVTPGEPASISCRSSQSLVHSNQNTYLHWYLQKPGQSPQLLIYKVSNRFSGVPDRFSGSGSGTDFTLKISRVEAEDVGVYYCSQNTHVPPTFGQGTKLEIK	~0.02		
modified humanized GC33 (H chain ver.k, L chain G34W) (antibody, human IgG1, V domains shown, COS7 supernatant; human IgG1/kappa) VH: QVQLVQSGAEVKKPGASVKVSCKASGYTFTDYEMHWVRQAPGQGLEWMGALDPKTGDTAYSQKFKGRVTLTADKSTSTAYMELSSLTSEDTAVYYCTRFYSYTYWGQGTLVTVSS VL: DVVMTQSPLSLPVTPGEPASISCRSSQSLVHSNWNTYLHWYLQKPGQSPQLLIYKVSNRFSGVPDRFSGSGSGTDFTLKISRVEAEDVGVYYCSQNTHVPPTFGQGTKLEIK		~0.02	
modified humanized GC33 (H chain ver.k, L chain G34Y) (antibody, human IgG1, V domains shown, COS7 supernatant; human IgG1/kappa) VH: QVQLVQSGAEVKKPGASVKVSCKASGYTFTDYEMHWVRQAPGQGLEWMGALDPKTGDTAYSQKFKGRVTLTADKSTSTAYMELSSLTSEDTAVYYCTRFYSYTYWGQGTLVTVSS VL: DVVMTQSPLSLPVTPGEPASISCRSSQSLVHSNYNTYLHWYLQKPGQSPQLLIYKVSNRFSGVPDRFSGSGSGTDFTLKISRVEAEDVGVYYCSQNTHVPPTFGQGTKLEIK		~0.02	
